Test results as given in patent US20240016928A1 (SCHOLAR ROCK, published 2024).

Tests used:
latent TGFβ2 = target: T1, latent TGFβ2 (Chlorocebus aethiops (Green monkey) …, UniProt P61811 20-414); test: Octet (bio-layer interferometry)
T1 sequence: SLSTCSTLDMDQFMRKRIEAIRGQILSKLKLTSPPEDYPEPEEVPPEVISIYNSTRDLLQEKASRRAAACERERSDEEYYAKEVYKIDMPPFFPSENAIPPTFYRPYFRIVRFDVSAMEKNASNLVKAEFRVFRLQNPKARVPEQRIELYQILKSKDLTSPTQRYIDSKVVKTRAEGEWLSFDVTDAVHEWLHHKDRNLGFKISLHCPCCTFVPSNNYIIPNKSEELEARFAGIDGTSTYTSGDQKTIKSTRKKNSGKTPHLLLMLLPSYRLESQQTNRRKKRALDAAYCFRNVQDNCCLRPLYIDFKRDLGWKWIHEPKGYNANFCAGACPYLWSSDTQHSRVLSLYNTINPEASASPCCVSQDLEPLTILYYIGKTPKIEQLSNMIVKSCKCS

latent TGFβ3 = target: T2, latent TGFβ3 (Homo sapiens (Human), UniProt P10600 21-412, limits assumed); test: Octet (bio-layer interferometry)
T2 sequence: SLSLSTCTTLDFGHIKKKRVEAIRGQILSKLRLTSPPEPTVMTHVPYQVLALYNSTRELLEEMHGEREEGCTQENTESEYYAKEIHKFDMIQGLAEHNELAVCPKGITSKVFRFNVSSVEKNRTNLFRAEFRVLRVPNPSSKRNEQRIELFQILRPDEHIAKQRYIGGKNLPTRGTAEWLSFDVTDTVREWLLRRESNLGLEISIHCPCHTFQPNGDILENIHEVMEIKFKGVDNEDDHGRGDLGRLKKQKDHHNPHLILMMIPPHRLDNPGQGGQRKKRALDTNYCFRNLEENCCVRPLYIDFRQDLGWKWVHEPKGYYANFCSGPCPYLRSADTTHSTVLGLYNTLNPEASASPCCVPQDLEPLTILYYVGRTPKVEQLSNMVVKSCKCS

B1: Ab3 (antibody, V domains shown)
VH: EVQLLESGGGLVQPGGSLRLSCAASGFTFRNYAMSWVRQAPGKGLEWVSSISGSGGATYYADSVKGRFTISRDNSKNTLYLQMNSLRAEDTAVYYCARVSSGHWDFDYWGQGTLVTVSS
VL: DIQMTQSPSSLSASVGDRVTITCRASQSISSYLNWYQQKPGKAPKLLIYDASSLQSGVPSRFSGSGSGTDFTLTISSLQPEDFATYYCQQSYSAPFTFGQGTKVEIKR
notes: described as a fully human monoclonal antibody; Ab3-mIgG1 was used in vivo
Latent TGFβ2
  binding result: no binding
Latent TGFβ3
  binding result: no binding
